Our source for the Kd values is publication PMC10171801.

The assay concerns the target MAGI2 PDZ0-GK (mouse) (UniProt Q9WVQ1). As to the kind of experiment: ITC. Background: ITC needs no label: the signal is the heat of the interaction.

pKd: −log10 of the molar value.

Sequence of UniProt Q9WVQ1 (Q9WVQ1 9-238): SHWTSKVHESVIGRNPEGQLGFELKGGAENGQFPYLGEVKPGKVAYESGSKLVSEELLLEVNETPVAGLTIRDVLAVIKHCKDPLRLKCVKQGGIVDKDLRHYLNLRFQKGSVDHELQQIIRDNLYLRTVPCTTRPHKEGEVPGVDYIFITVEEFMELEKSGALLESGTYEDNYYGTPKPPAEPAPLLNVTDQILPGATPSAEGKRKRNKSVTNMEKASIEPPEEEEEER

Consider pSAPAP1-GBR2(T+5F) (peptide), for which the pKd (in general, −log10 of the Kd, conventionally taken in molar units) is 7.15.

With pSAPAP1-GBR2(E-1P) (peptide), the pKd was 7.15.
